From patent US20250121082A1 (SHANDONG BOAN BIOTECHNOLOGY, published 2025) come the findings set out here.

The target in assay [1] is T1, Human CD228 protein (human, UniProt P08582 20-708, limits assumed).
T1 construct: Recombinant protein made in CHO cells, purified over a Ni column; The printed entry begins with the leader (MRGPSG...) and ends with ten His; also called hCD228; CD228-His protein
T1 sequence: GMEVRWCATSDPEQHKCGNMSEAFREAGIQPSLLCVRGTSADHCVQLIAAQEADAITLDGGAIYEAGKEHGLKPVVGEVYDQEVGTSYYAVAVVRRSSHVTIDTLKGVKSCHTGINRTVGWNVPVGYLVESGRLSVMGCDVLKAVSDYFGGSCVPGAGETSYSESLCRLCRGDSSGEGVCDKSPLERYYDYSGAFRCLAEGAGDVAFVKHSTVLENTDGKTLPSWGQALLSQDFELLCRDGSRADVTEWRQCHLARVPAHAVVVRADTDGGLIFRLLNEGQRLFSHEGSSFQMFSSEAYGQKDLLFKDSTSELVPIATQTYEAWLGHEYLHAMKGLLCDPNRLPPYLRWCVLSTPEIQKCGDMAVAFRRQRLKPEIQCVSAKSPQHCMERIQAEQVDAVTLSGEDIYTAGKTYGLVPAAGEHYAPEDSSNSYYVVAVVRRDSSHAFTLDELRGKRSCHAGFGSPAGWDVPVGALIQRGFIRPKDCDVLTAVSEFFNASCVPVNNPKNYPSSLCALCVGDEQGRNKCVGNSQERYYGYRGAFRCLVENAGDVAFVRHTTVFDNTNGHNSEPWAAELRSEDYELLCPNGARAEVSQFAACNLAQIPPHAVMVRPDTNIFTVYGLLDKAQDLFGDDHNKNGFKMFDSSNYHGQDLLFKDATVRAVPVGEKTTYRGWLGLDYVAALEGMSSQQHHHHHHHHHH
As to the kind of experiment: Octet competition on His-chip CD228; competitor: CA13. Here is the method:
(§1) CD228 proteins were immobilized on His chips at 10 μg/mL with a threshold of 0.5 nm. The first CD228 antibody (30 μg/mL) was immobilized, and the competitive binding of the second CD228 antibody (30 μg/mL) was analyzed. The Octet 8K system was used to analyze the response of antibody 2 and to determine whether antibody 1 and antibody 2 were in competition.
In general terms: In BLI a coated tip is dipped into the sample, and binding shifts an interference pattern.

Assay [2] has as its target T1, Human CD228 protein. Description: Octet competition on His-chip CD228; competitor: CA185. As for the experimental part:
as §1
(§2) The final competition analysis was conducted using the following calculation method: 1—response value/blank value.

Assay [3] concerns the target T1, Human CD228 protein. As to the kind of experiment: Octet competition on His-chip CD228; competitor: BA352. Here is the method:
as §1

The target in assay [4] is T1, Human CD228 protein. Description: Octet competition on His-chip CD228; competitor: CA13. As for the experimental part: as §1, §2
The source holds these as a separate data set.

In assay [5] the target is T2, CD228 protein on human melanoma SK-MEL-5 cells (human, UniProt P08582 20-709).
T2 construct: whole, on cells; Endogenous CD228 on the cell line; also called SK-MEL-5 cells (expressing CD228 proteins)
T2 sequence (looked up): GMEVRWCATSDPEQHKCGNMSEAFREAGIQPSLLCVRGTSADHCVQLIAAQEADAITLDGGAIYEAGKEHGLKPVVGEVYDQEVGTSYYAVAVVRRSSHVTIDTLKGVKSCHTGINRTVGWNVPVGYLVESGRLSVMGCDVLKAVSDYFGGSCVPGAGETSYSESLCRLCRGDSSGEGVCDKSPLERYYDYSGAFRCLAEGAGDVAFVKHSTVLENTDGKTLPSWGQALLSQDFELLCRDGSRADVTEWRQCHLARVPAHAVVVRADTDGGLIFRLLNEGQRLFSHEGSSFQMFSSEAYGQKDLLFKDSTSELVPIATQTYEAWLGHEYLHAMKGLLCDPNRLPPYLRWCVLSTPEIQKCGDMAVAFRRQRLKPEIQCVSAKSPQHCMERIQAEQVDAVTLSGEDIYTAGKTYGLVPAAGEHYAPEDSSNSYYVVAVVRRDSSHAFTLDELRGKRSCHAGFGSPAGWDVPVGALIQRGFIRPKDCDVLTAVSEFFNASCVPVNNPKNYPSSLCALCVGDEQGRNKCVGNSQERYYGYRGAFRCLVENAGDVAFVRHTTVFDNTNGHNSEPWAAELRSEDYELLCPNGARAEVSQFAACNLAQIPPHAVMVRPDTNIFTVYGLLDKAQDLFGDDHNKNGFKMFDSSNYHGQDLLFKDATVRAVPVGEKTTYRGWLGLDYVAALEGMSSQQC
As to the kind of experiment: flow cytometry on SK-MEL-5 cells, fluorescent secondary antibody, MFI. Here is the method: To a 96-well round-bottom plate, human melanoma SK-MEL-5 cells (ATCC, HTB-70) were added with a cell density of 7E4 cells/50 μL/well. The antibodies were serially diluted with an FACS buffer (PBS, Boster Biological Technology, Catalog No. PYG0021) and added to the 96-well round-bottom plate at 50 μL/well. The plate was then incubated at 4° C. for 1 h. The supernatant was discarded after centrifugation at 400 g for 4 min. The plate was washed once with FACS buffer, before a fluorescent secondary antibody (Jackson, 109545-008) at 100 μL/well was added. The mixture was incubated at 4° C. in the dark for 30 min and centrifuged at 400 g for 4 min. The supernatant was discarded. The cells were washed once with FACS buffer, resuspended in FACS buffer at 100 μL/well, and loaded on a flow cytometer (ACEA Pharma, NovoCyte 2060) for analysis. […] The isotype reference antibody in FIG. 4 is an irrelevant antibody targeting other antigens with constant regions similar to the experimental anti-CD228 antibodies but with different variable regions.

Assay [6] concerns the target T1, Human CD228 protein. Description: Octet competition on His-chip CD228; competitor: CA518. Here is the method: as §1, §2
In assay [7] the target is T1, Human CD228 protein. The assay is described as above. As for the experimental part:
as §1
This is another data set of the same source.

Residue numbers refer to the chain shown, from its start.

B1: reference antibody hL49 (antibody, human IgG1, kappa, V domains shown)
VH: QVQLQESGPGLVKPSETLSLTCTVSGDSITSGYWNWIRQPPGKGLEYIGYISDSGITYYNPSLKSRVTISRDTSKNQYSLKLSSVTAADTAVYYCARRTLATYYAMDYWGQGTLVTVSS
VL: DFVMTQSPLSLPVTLGQPASISCRASQSLVHSDGNTYLHWYQQRPGQSPRLLIYRVSNRFSGVPDRFSGSGSGTDFTLKISRVEAEDVGVYYCSQSTHVPPTFGQGTKLEIKR
notes: also called H149; hL49 analogy
B1: the Octet response value worked out at 0.418 in assay [1], 0.177 in assay [3] and 0.456 in assay [7]. Also, the “competition (1-response value/blank value)” value in assay [2] was -5%; in assay [4] it was -6%; in assay [6] it was -3%. In assay [5], the EC50 amounted to 0.195 µg/mL.

B2: BA352 (antibody, human IgG1, kappa, V domains shown)
VH: EVQLVESGGGVVQPGRSLRLSCAASGFTFSSYAMHWVRQAPGKGLEWVAVISYDGSNKYYADSVKGRFTISRDNSKNTLYLQMNSLRAEDTAVYYCARGPYLAAAGTALTFDIWGQGTMVTVSS
VL: DIQMTQSPSAMSASVGDRVTITCRASQGINNYLAWFQQKPGKVPKRLIYAASSLQSGVPSRFSGSGSGTEFTLTISSLQPEDFATYYCLQHNSYPFTFGPGTKVDIKR
notes: Intact IgG1
For the molecule B2, the Octet response value is 0.424 in assay [1], 0.0217 in assay [3] and 0.458 in assay [7]. Further, the “competition (1-response value/blank value)” value is -3% in assay [2], -8% in assay [4] and -4% in assay [6]. For the same molecule, it took 0.152 µg/mL to reach a half-maximal effect in assay [5] (EC50).

B3: CA13 (antibody, human IgG1, kappa, V domains shown)
VH: EVQLVESGGGVVQPGRSLRLSCAASGFTFSSYAMHWVRQAPGKGLEWVAVISYDGSNKYYADSVKGRFTISRDNSKNTLFLQMNSLRAEDTAVYYCARDVYHYGSRSPYYYGMDVWGQGTTVTVSS
VL: DIVMTQSPSSLSASVGDRVTITCRASQGISNYLAWFQQKPGKVPKLLIYAASTLQSGVPSRFSGSGSGTDFTLTISSLQPEDVATYYCQKYNSAPFTFGPGTKVDIKR
notes: Intact IgG1 from fully human antibody-transgenic mice
With B3, the Octet response value in assay [1] was -0.0011; in assay [3], 0.427; in assay [7], -0.0081. Further, the “competition (1-response value/blank value)” value in assay [2] worked out at 101%; in assay [4] it was 100%; in assay [6], 102%. In addition, in assay [5], a half-maximal response (EC50) required 0.083 µg/mL.

B4: CA518 (antibody, human IgG1, kappa, V domains shown)
VH: B3 VH with Y60H, A97V
VL: B3 VL with V3Q, L11V, N31S, Y32W, F36Y, V43A, T53S
notes: Intact IgG1
In the case of B4, the Octet response value in assay [1] was 0.006; in assay [3], 0.415; in assay [7], -0.0046. For the same molecule, the “competition (1-response value/blank value)” value in assay [2] was 101%; in assay [4] it was 98%; in assay [6], 101%. This molecule also had an EC50 in assay [5] of 0.081 µg/mL.

B5: CA67 (antibody, human IgG1, kappa, V domains shown)
VH: B3 VH with F80Y
VL: B3 VL with V3Q, G28A, F36Y, Q55H, S56P
notes: Intact IgG1
In the case of B5, the Octet response value in assay [1] is -0.0065; in assay [3] it was 0.423; in assay [7] it was -0.0133. The entries for the “competition (1-response value/blank value)” value in assay [2], in assay [4] and in assay [6] were 103%, 102% and 103%, respectively. The molecule also yielded an EC50 in assay [5] of 0.096 µg/mL.

B6: CA149 (antibody, human IgG1, kappa, V domains shown)
VH: EVQLVESGGGVVQPGRSLRLSCAASGFTFSSYAMHWVRQAPGKGLEWVAVISFDGSNKYYTDSVKGRFTISRDNSKNTLYLQMNSLRAEDTAVYYCAREVPYYYGSGPFDYWGQGTLVTVSS
VL: EIVLTQSPATLSVSPGERATLSCRASQSVSSNLAWYQQKPGQAPRHLIDGASSRASGIPDRFSGSGSGTDFTLTISRLEPEDFAVYYCQQYGSSPPFTFGPGTKVDIKR
notes: Intact IgG1; also called CA149 antibody
Regarding B6, the Octet response value in assay [1] is 0.0117; in assay [3], 0.442; in assay [7], 0.0079. In addition, the “competition (1-response value/blank value)” value in assay [2] was found to be 98%; in assay [4], 97%; in assay [6], 98%. Also, the response in assay [5] was half-maximal at 0.135 µg/mL (EC50).

B7: CA185 (antibody, human IgG1, kappa, V domains shown)
VH: B6 VH with F53Y, T61A
VL: EIVLTQSPGTLSLSPGERATLSCRASQSVSSSSLAWYQQKPGQAPRHLIDGASSRASGIPDRFSGSGSGTDFTLTISRLEPEDFAVYYCQQYGSSYTFGQGTKVDIKR
notes: Intact IgG1
Take B7: the Octet response value worked out at 0.0046 in assay [1], 0.459 in assay [3] and 0.0029 in assay [7]. Moreover, the “competition (1-response value/blank value)” value in assay [2], in assay [4] and in assay [6] was 99% throughout. Further, the response in assay [5] was half-maximal at 0.123 µg/mL (EC50).

The term EC50 denotes the concentration at which the effect is half-maximal.
